Experimental data from article PMC2901339.
Like-named read-outs stand apart in the source and are kept apart here.

Tests used:
[1] = biological target: coatomer protein I (COP-I), endogenous, HEK cells (human (endogenous in HEK-293)) (UniProt P53618); assay: co-IP; lysates of HEK cells transfected with V5 tagged constructs, immunoprecipitated with anti COP I antibody, blot with anti V5 antibody
NF-PLN RΔ14 (rabbit) = NF-PLN RΔ14 (rabbit) (UniProt P61015); assay: co-IP; lysates of transfected HEK cells, FLAG-tagged PLN constructs precipitated with anti-Flag antibody and Protein G-Sepharose, 4°C, 0.1% Triton-X100, blot with COP I antibody
[2] = biological target: NF-R13E/R14E (N-terminally FLAG-tagged PLN R13E/R14E) (rabbit) (UniProt P61015); assay: as above
[3] = biological target: coatomer protein I (COP-I), endogenous, HEK cells (human (endogenous in HEK-293)) (UniProt P53618); assay: co-IP; lysates of HEK cells transfected with V5 tagged constructs, immunoprecipitated with anti COP I antibody, blot with anti V5 antibody; remark: listed apart in the source

Question: Which fold band intensity of the wild type over this mutant [1] does the source give for “V5 tagged Sigma 1R R7E/R8E (from UniProt Q99720 1-223) (natural protein)” here?
Answer: > 2 fold

Question: “coatomer protein I (COP-I), endogenous, HEK cells (from UniProt P53618 1-953) (complex)” was tested. Which fold reduction in band intensity against NF-PLN (NF-PLN RΔ14 (rabbit)) did it give?
Answer: 5 fold

Question: And the fold reduction in band intensity against NF-PLN [2]?
Answer: 5 fold

B1: V5 tagged SR β R7E/R8E (natural protein)
chain: MASADSEEVADGGGAGGTFQPYLDTLRQELQQTDPTLLSVVVAVLAVLLTLVFWKLIRSRRSSQRAVLLVGLCDSGKTLLFVRLLTGLYRDTQTSITDSCAVYRVNNNRGNSLTLIDLPGHESLRLQFLERFKSSARAIVFVVDSAAFQREVKDVAEFLYQVLIDSMGLKNTPSFLIACNKQDIAMAKSAKLIQQQLEKELNTLRVTRSAAPSTLDSSSTAPAQLGKKGKEFEFSQLPLKVEFLECSAKGGRGDVGSADIQDLEKWLAKIA
Question: With B1 as the molecule, how does the fold band intensity of the wild type over this mutant [3] read?
Answer: > 2 fold
